Results taken from paper PMC7033129, “Structural basis for substrate specificity and catalysis of α1,6-fucosyltransferase” (Nature Communications, 2020).

Biological target: the molecule itself
Assay: crystal structure; C2 crystals of HsFUT8 with 5 mM GDP and 5 mM G0, 1.95 Å; two molecules in the asymmetric unit, each forming a dimer with a molecule of the neighbouring asymmetric unit

B1: human α1,6-fucosyltransferase (HsFUT8), residues 68–575 (enzyme, UniProt Q9BYC5 68-575, looked up)
chain: RIPEGPIDQGPAIGRVRVLEEQLVKAKEQIENYKKQTRNGLGKDHEILRRRIENGAKELWFFLQSELKKLKNLEGNELQRHADEFLLDLGHHERSIMTDLYYLSQTDGAGDWREKEAKDLTELVQRRITYLQNPKDCSKAKKLVCNINKGCGYGCQLHHVVYCFMIAYGTQRTLILESQNWRYATGGWETVFRPVSETCTDRSGISTGHWSGEVKDKNVQVVELPIVDSLHPRPPYLPLAVPEDLADRLVRVHGDPAVWWVSQFVKYLIRPQPWLEKEIEEATKKLGFKHPVIGVHVRRTDKVGTEAAFHPIEEYMVHVEEHFQLLARRMQVDKKRVYLATDDPSLLKEAKTKYPNYEFISDNSISWSAGLHNRYTENSLRGVILDIHFLSQADFLVCTFSSQVCRVAYEIMQTLHPDASANFHSLDDIYYFGGQNAHNQIAIYAHQPRTADEIPMEPGDIIGVAGNHWDGYSKGVNRKLGRTGLYPSYKVREKIETVKYPTYPEAEK
notes: α1,6-fucosyltransferase (FUT8), human, amino acid residues 68–575 (coiled-coil, catalytic and SH3 domains); Expressed from pHLSec-12His-GFP-TEV-HsFUT8 after the vector's secretion signal; His-GFP cut off with TEV protease before crystallisation; Crystallised with GDP and the N-glycan G0; source: HEK293F, transfected, secreted into the supernatant, purified (His-Trap, TEV cleavage, second …)
Q: Does B1 bind?
A: binds
